This is an account of results in publication PMC11564643.

In test [1] the target is dynamic microtubules grown from GMPCPP stabilized seeds (porcine brain tubulin) (porcine) (UniProt P02550).
For test [2] the target is unchanged. Briefly: FRAP (TIRF microscopy on dynamic microtubules); set-up of the buckling experiment; EB3 and HSET bleached together (488 and 561 nm lasers at 100% for 50 frames), recovery followed at free tips and in antiparallel overlaps.

“biotinylated EB3 dimers coupled directly to streptavidin beads (from UniProt Q9UPY8 1-281) (natural protein)”: the force on a streptavidin bead coated directly with a saturating amount of biotinylated EB3 dimers, optical trap at a growing microtubule tip in test [1] is 0.5 pN.
With “mGFP-EB3 homodimer (from UniProt Q9UPY8 1-281) (natural protein)”, in test [2], the fluorescence recovery time at single microtubule tips (in the presence of HSET) stood at 6 s and the fold slower turnover at tips in antiparallel overlaps (with HSET) against single tips turned out to be 3 fold.
